Data as given in paper PMC9044407 (Protein Science : A Publication of the Protein Society, 2022).
Positions count from the first letter of the chain named. Like-named read-outs stand apart in the source and are kept apart here.

How the values were obtained:
[1] = molecular target: the molecule itself
[2] = molecular target: T1, human Suv3 (residues 48–786), N-terminal His-tagged (human, UniProt Q8IYB8 48-786); test: SEC
T1 sequence (looked up): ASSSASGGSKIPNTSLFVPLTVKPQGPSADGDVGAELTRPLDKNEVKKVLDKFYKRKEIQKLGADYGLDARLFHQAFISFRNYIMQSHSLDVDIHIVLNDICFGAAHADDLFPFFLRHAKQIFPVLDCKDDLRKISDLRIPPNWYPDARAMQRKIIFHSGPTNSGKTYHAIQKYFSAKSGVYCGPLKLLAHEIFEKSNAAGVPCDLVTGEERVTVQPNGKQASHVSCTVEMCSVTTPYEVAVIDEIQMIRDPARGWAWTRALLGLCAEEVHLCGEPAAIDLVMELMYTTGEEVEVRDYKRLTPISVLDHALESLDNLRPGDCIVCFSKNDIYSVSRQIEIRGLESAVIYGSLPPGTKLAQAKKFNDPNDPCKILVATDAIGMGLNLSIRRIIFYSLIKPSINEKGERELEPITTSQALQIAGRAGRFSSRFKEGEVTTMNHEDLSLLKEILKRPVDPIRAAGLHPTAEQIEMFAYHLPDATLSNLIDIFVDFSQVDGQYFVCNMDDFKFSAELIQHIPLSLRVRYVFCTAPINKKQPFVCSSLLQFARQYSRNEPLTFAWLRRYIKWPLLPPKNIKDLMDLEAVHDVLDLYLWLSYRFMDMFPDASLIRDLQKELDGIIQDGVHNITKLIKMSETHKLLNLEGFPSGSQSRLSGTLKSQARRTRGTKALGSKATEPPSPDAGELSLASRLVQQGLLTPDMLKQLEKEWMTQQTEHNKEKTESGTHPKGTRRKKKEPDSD

Suv3 [3] = molecular target: T2, Suv3 (human, UniProt Q8IYB8 48-786); test: fluorescence polarization
T2 sequence: T1 sequence (looked up)

Suv3 [4] = molecular target: T2, Suv3; test: fluorescence polarization; remark: listed apart in the source
Suv3ΔC = molecular target: T3, Suv3ΔC (human, UniProt Q8IYB8 48-722, del723-786); test: fluorescence polarization
T3 sequence: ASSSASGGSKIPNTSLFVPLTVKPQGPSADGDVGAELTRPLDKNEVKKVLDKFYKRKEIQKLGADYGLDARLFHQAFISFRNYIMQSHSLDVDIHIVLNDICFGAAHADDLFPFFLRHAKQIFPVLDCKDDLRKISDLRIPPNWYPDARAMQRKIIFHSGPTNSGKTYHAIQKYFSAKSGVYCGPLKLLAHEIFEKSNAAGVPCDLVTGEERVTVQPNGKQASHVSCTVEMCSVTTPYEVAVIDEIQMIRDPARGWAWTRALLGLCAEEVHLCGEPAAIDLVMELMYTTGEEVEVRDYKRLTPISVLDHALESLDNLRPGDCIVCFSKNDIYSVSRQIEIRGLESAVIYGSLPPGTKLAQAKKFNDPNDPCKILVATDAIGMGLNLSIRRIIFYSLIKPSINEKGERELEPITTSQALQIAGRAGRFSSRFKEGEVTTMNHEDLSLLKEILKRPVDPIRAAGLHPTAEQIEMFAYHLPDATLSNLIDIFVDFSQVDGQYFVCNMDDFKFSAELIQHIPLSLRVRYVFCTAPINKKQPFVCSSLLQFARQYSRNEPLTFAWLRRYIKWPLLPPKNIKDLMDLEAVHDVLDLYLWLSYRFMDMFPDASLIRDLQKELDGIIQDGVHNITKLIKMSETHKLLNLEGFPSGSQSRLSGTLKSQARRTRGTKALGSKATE

Suv3 [5] = molecular target: T2, Suv3; test: fluorescence polarization; remark: listed apart in the source
Suv3 [6] = molecular target: T2, Suv3; test: fluorescence polarization; remark: listed apart in the source
Suv3 [7] = molecular target: T2, Suv3; test: fluorescence polarization; remark: listed apart in the source
Suv3 [8] = molecular target: T2, Suv3; test: fluorescence polarization; remark: listed apart in the source

B1: human PNPase (residues 46–783), C-terminal His-tagged (enzyme, UniProt Q8TCS8 46-783, looked up)
chain: AVAVDLGNRKLEISSGKLARFADGSAVVQSGDTAVMVTAVSKTKPSPSQFMPLVVDYRQKAAAAGRIPTNYLRREIGTSDKEILTSRIIDRSIRPLFPAGYFYDTQVLCNLLAVDGVNEPDVLAINGASVALSLSDIPWNGPVGAVRIGIIDGEYVVNPTRKEMSSSTLNLVVAGAPKSQIVMLEASAENILQQDFCHAIKVGVKYTQQIIQGIQQLVKETGVTKRTPQKLFTPSPEIVKYTHKLAMERLYAVFTDYEHDKVSRDEAVNKIRLDTEEQLKEKFPEADPYEIIESFNVVAKEVFRSIVLNEYKRCDGRDLTSLRNVSCEVDMFKTLHGSALFQRGQTQVLCTVTFDSLESGIKSDQVITAINGIKDKNFMLHYEFPPYATNEIGKVTGLNRRELGHGALAEKALYPVIPRDFPFTIRVTSEVLESNGSSSMASACGGSLALMDSGVPISSAVAGVAIGLVTKTDPEKGEIEDYRLLTDILGIEDYNGDMDFKIAGTNKGITALQADIKLPGIPIKIVMEAIQQASVAKKEILQIMNKTISKPRASRKENGPVVETVQVPLSKRAKFVGPGGYNLKKLQAETGVTISQVDEETFSVFAPTPSAMHEARDFITEICKDDQEQQLEFGAVYTATITEIRDTGVMVKLYPNMTAVLLHNTQLDQRKIKHPTALGLEVGQEIQVKYFGRDPADGRMRLSRKVLQSPATTVVRTLNDRSSIVMGEPISQSSSNSQ
stoichiometry N [1]: 3
binding result [2]: binds

GGTGTGGTGGCATACGTGCAGACGC (ssDNA) [ssDNA 25 nt]
Kd (Suv3 [3]): 44 ± 1.7 nM

GGUGUGGUGGCAUACGUGCAGACGC (ssRNA) [ssRNA 25 nt]
Kd (Suv3 [3]): 53.1 ± 0.7 nM

B2: dsDNA 10-nt 5' overhang (dsDNA)
DNA 1: GGTGTGGTGGCATACGTGCAGACGC
DNA 2: GAGGAGAGGAGCGTCTGCACGTATGCCACCACACC
binding signal (Suv3 [4]): 8 fold lower affinity than 3' overhang dsDNA

B3: DNA-RNA hybrid 10-nt 5' overhang (DNA:RNA)
DNA: GGTGTGGTGGCATACGTGCAGACGC
RNA: B2 DNA 2 with T14U, T16U, T22U, T24U
binding signal (Suv3 [4]): 23 fold lower affinity than 3' overhang DNA-RNA hybrid

B4: dsDNA 10-nt 3' overhang (dsDNA)
DNA 1: GGTGTGGTGGCATACGTGCAGACGC
DNA 2: GCGTCTGCACGTATGCCACCACACCAGGAGAGGAG
Kd (Suv3 [3]): 11.5 ± 0.2 nM
Kd (Suv3ΔC): 99 ± 8.6 nM

B5: DNA-RNA hybrid 10-nt 3' overhang (DNA:RNA)
DNA: GGTGTGGTGGCATACGTGCAGACGC
RNA: B4 DNA 2 with T4U, T6U, T12U, T14U
Kd (Suv3 [3]): 13.1 ± 0.4 nM
Kd (Suv3ΔC): 110 ± 9.5 nM

B6: dsRNA 10-nt 3' overhang (dsRNA)
RNA 1: GGUGUGGUGGCAUACGUGCAGACGC
RNA 2: B4 DNA 2 with T4U, T6U, T12U, T14U
Kd (Suv3 [5]): 62.2 ± 2.2 nM
Kd (Suv3 [6]): 32.6 ± 0.6 nM
Kd (Suv3 [3]): 18.7 ± 0.7 nM
Kd (Suv3 [7]): 19.3 ± 0.5 nM

B7: dsRNA 5-nt 3' overhang (dsRNA)
RNA 1: GGUGUGGUGGCAUACGUGCAGACGC
RNA 2: GCGUCUGCACGUAUGCCACCACACCAGGAG
Kd (Suv3 [3]): ~65 nM

B8: blunt-end dsRNA (dsRNA)
RNA 1: GGUGUGGUGGCAUACGUGCAGACGC
RNA 2: GCGUCUGCACGUAUGCCACCACACC
binding result (Suv3 [8]): no binding

B9: dsRNA 10-nt 5' overhang (dsRNA)
RNA 1: GGUGUGGUGGCAUACGUGCAGACGC
RNA 2: B2 DNA 2 with T14U, T16U, T22U, T24U
binding result (Suv3 [8]): no binding

B10: dsRNA 15-nt 3' overhang (dsRNA)
RNA 1: GGUGUGGUGGCAUACGUGCAGACGC
RNA 2: GCGUCUGCACGUAUGCCACCACACCAGGAGAGGAGAGGAG
Kd (Suv3 [3]): ~18 nM

B11: dsRNA 20-nt 3' overhang (dsRNA)
RNA 1: GGUGUGGUGGCAUACGUGCAGACGC
RNA 2: GCGUCUGCACGUAUGCCACCACACCAGGAGAGGAGAGGAGAGGAG
Kd (Suv3 [3]): ~18 nM

B12: blunt-end dsDNA (dsDNA)
DNA 1: GGTGTGGTGGCATACGTGCAGACGC
DNA 2: GCGTCTGCACGTATGCCACCACACC
Kd (Suv3 [3]): 63.9 ± 1.5 nM

B13: blunt-end DNA-RNA hybrid (DNA:RNA)
DNA: GGTGTGGTGGCATACGTGCAGACGC
RNA: GCGUCUGCACGUAUGCCACCACACC
Kd (Suv3 [3]): 103 ± 5.9 nM
